B1: NP_015628.1 (parent)
chain: EQRNSRWNTVLRAVKAKTHHLEP
B2: APBB1IP (parent)
chain: FNYSVGFKDLNESLNALEDQDLDA

Variants of: B1
Assay: protein stability index of a GFP-peptide fusion (GPS, HEK-293T) (PSI 1-6); higher = more stable
Settings: c terminus: native

Protein stability index: each site, then its substitutions
E22: S 3.09, C 2.63, A 2.87, T 3.23, K 4.85, Y 3.91, H 3.45, I 2.45, N 4.48, D 3.21, W 3.6, M 2.84, P 4.21, G 3.09, F 3.55, R 2.26, V 3.49, Q 3.28, L 3.02
H20: K 4.01, S 2.66, N 3.47, G 1.9, I 3.15, F 3.22, C 2.23, T 3.27, W 3.46, Q 2.89, P 3.89, E 3.19, A 2.81, Y 3.25, V 3.46, D 3.09, L 3.6
P23: G 4.74, F 4.51, N 4.98, K 5.17, H 4.88, Y 4.4, M 4.09, E 3.95, I 4.19, T 4.13, A 4.32, D 4.92, Q 5.08, L 4.39, V 4.13, R 3.9
K15: R 3.08, F 2.9, E 3.25, I 3.1, H 3.22, T 2.99, V 3.11, L 3.07, N 3.17, P 3.14, D 3.21, C 3.1, S 3.26, M 3.33, G 3.31, Y 3.25, A 3.24, W 3.24, Q 3.05
A16: R 2.77, H 2.98, D 2.82, P 2.78, T 2.78, M 2.9, V 2.95, S 3.24, N 2.35, Y 2.78, F 3.02, G 2.77, W 2.92, Q 2.99, I 2.73, E 2.37
R12: L 2.76, S 2.57, V 2.47, E 2.79, F 2.41, N 3.21, A 2.77, M 2.8, D 2.44, Y 2.5, G 2.78, T 3.07, K 2.97, I 2.46, W 2.67, Q 2.71, P 3.05, H 2.98, C 2.74
L21: Y 3.81, D 4.04, F 3.82, A 4.09, M 3.01, W 4.04, E 4.79, T 4.26, G 3.67, R 2.08, P 4.27, Q 4.55, I 3.59, K 4.92, V 4.29, H 4.16, N 4.59
V10: C 3.99, H 2.81, F 2.74, T 3.15, Q 3.25, N 3.76, E 3.92, P 4.13, A 3.52, W 2.78, R 2.77, I 2.92, D 4.65, S 3.63, M 2.89, K 3.15, Y 2.53
T18: K 2.97, N 2.82, C 2.5, V 3.12, G 3.12, L 3.13, I 3.12, Y 2.84, H 2.76, A 2.91, D 3.14, F 3.33, P 2.93, Q 3.34, R 3.11, S 2.29, M 2.83, W 3.57, E 3.26
A13: C 3.08, G 2.89, M 3.28, K 2.87, D 2.78, E 2.24, F 2.52, H 2.94, Q 2.7, Y 3.1, W 2.93, S 3, N 3.06, I 2.66, T 2.97, L 2.69, R 2.57
H19: W 3.54, F 3.66, M 3.37, Q 3.73, G 3.86, P 2.65, I 3.44, V 3.31, N 3.56, D 3.81, R 2.96, A 3.34, E 3.75, K 3.57, Y 3.07, L 3.43, T 3.74
N8: Y 2.61, Q 2.06, T 2.16, S 2.28, V 3, R 2.53, W 2.78, P 3.65, M 2.15
T9: E 2.38, H 2.38, P 4.6, Q 3, F 1.99, R 4.1, W 2.3, D 2.29, M 3.04, L 2.91, S 3.31, N 3.3, A 3.31, I 3.02, Y 2.23, G 3.94, V 2.74, C 3
V14: K 3.44, E 2.45, C 2.73, L 3.05, P 2.73, W 3.26, M 3.07, Q 2.85, I 3.37, R 2.96, A 3.23, D 2.89, H 3.06, Y 2.87, S 3.28, T 2.97, G 3.31, N 3.1, F 2.87
K17: H 2.52, S 2.85, Y 2.82, E 2.77, W 2.62, T 2.84, A 2.77, I 2.61, M 2.91, V 2.79, P 2.96, C 2.61, L 2.62, R 3.33, F 2.75, N 2.69, Q 2.67, D 3.1
L11: I 2.51, H 4.49, V 2.5, A 3.95, K 4.86, S 4.1, W 3.69, Y 3.5, F 3.9, Q 4.63, E 4.36, C 2.47, D 4.52, T 3.12, N 4.51, M 3.19, P 5.12, R 5.15, G 4.32

Variants of: B2
Assay: as above
Settings: c terminus: a fixed tail appended

Protein stability index: each site, then its substitutions
N2: K 4.11, A 2.07, H 1.98, D 5.38, W 2.4, C 2.18, I 4.43, F 3.07, Y 2.72, M 1.99, S 2.64, P 2.44, R 3.26, E 4.45, Q 2.88, L 2.01, T 2.23, G 4.39, V 2.96
F1: K 4.39, Y 4.91, V 4.66, P 5.21, A 5, Q 5.38, R 5.42, L 4.7, C 4.79, M 5.31, H 5.05, T 5.35, D 5.74, G 4.72, I 4.43, N 5.51, W 4.53, E 5.53, S 4.44
Y3: A 5.06, H 4.07, N 5.12, I 4.21, V 3.54, E 5.43, C 4.74, W 3.87, G 4.82, S 4.76, M 4.4, P 5.15, F 3.71, Q 5.36, D 4.89, R 5.36, K 5.17, T 5.54, L 4.52
S4: A 4.53
